Publication PMC2801713 (Molecular Biology of the Cell, 2010)

Molecular target: GFP-WIP (wild type) (human, UniProt O43516 1-503)
Experiment: far-Western, overlay or dot blot

Sequence of GFP-WIP (wild type) (O43516 whole entry): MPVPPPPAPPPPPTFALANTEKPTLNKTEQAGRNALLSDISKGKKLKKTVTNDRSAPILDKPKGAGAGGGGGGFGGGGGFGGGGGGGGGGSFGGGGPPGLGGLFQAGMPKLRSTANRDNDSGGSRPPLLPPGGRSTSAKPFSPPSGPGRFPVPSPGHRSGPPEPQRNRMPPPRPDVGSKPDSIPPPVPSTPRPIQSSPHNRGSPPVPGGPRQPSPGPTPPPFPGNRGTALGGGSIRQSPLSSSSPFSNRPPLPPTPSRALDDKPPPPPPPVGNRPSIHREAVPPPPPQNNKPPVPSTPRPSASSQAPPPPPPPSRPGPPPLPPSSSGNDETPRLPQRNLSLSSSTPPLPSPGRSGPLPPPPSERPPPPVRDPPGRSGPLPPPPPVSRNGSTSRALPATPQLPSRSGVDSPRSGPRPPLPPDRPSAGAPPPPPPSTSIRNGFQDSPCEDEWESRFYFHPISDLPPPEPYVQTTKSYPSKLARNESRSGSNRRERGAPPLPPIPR

binding result: binds
B1: His-mAbp1-GST (natural protein, mouse, UniProt Q62418 1-436, looked up)
chain: MAVNLSRNGPALQEAYVRVVTEKSPTDWALFTYEGNSNDIRVAGTGEGGLEELVEELNSGKVMYAFCRVKDPNSGLPKFVLINWTGEGVNDVRKGACANHVSTMANFLKGAHVTINARAEEDVEPECIMEKVAKASGANYSFHKESTSFQDVGPQAPVGSVYQKTNAISEIKRVGKDNFWAKAEKEEENRRLEEKRRAEEERQRLEEERRERELQEAARREQRYQEQHRSAGAPSPSSRTGEPEQEAVSRTRQEWESAGQQAPHPREIFKQKERAMSTTSVTSSQPGKLRSPFLQKQLTQPETSYGREPTAPVSRPAAGVCEEPAPSTLSSAQTEEEPTYEVPPEQDTLYEEPPLVQQQGAGSEHIDNYMQSQGFSGQGLCARALYDYQAADDTEISFDPENLITGIEVIDEGWWRGYGPDGHFGMFPANYVELIE
